Source: patent US20070100561

What was measured:
[1] = molecular target: enzymatically deglycosylated soluble extracellular domain of human dipeptidyl peptidase IV (sDPP-IVdeglycos; residues 31-766)
[2] = molecular target: enzymatically deglycosylated soluble extracellular domain of human DPP-IV (sDPP-IVdeglycos)
enzymatically deglycosylated soluble extracellular domain of human DPP-IV (sDPP-IVdeglycos), sequence (chain, as listed by the source): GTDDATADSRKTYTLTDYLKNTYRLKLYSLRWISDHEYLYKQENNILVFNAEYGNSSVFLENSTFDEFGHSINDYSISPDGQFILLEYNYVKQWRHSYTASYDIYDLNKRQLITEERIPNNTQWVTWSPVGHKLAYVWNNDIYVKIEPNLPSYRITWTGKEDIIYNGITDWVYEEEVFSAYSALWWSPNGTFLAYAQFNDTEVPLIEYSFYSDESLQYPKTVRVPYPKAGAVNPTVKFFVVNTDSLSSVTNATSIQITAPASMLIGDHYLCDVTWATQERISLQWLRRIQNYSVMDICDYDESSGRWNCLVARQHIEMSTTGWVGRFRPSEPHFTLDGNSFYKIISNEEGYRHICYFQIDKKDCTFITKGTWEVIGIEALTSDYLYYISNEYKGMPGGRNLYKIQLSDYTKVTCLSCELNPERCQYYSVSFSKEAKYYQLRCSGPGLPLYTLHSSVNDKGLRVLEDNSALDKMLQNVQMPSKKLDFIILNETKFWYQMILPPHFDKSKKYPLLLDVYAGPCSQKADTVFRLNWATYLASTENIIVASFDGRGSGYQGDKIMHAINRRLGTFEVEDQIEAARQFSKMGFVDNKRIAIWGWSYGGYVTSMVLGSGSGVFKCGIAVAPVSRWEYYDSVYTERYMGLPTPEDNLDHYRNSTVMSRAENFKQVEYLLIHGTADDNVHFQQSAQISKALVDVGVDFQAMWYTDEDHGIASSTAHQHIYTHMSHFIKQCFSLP

enzymatically deglycosylated soluble extracellular domain of human dipeptidyl peptidase IV (sDPP-IVdeglycos; residues 31-766), sequence (chain, as listed by the source): as above

B1: adenosine deaminase (ADA; Sigma Type IV, from calf intestinal mucosa) (protein)
chain: AQTPAFNKPKVELHVHLDGAIKPETILYYGRKRGIALPADTPEELQNIIGMDKPLSLPEFLAKFDYYMPAIAGCREAVKRIAYEFVEMKAKDGVVYVEVRYSPHLLANSKVEPIPWNQAEGDLTPDEVVSLVNQGLQEGERDFGVKVRSILCCMRHQPSWSSEVVELCKKYREQTVVAIDLAGDETIEGSSLFPGHVKAYAEAVKSGVHRTVHAGEVGSANVVKEAVDTLKTERLGHGYHTLEDATLYNRLRQENMHFEVCPWSSYLTGAWKPDTEHPVVRFKNDQVNYSLNTDDPLIFKSTLDTDYQMTKNEMGFTEEEFKRLNINAAKSSFLPEDEKKELLDLLYKAYGMPSPA
B1 was tested, and the DPP-IV activity [1] was “confirming the independence of DPP-IV activity on ADA binding”, the KM (enzyme activity of DPP-IV in the complex with ADA) [2] was 14.8 µM and the kcat (enzyme activity of DPP-IV in the complex with ADA) [2] was 39.6 s⁻¹. It also gave a kcat/KM (enzyme activity of DPP-IV in the complex with ADA) [2] of 2.68e+06 M⁻¹ s⁻¹.
